T1: hIL-11Rα (Homo sapiens, UniProt Q14626)
T1 sequence (Q14626 23-422): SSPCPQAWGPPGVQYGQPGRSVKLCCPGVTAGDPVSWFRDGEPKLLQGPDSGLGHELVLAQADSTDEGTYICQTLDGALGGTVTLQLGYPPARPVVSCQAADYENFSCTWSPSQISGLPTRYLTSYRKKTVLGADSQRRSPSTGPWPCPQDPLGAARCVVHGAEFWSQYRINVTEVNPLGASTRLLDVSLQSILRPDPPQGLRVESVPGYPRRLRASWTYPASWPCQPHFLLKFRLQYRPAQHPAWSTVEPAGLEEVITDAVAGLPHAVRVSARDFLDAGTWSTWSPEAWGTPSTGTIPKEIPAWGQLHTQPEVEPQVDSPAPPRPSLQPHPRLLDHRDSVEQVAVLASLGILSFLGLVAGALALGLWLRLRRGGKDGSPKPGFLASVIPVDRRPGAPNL


Experiments:
[1] = system: IL-11 signaling (STAT3 Reporter (Luciferase)-HEK293 cell line); assay: Cell-based STAT3 reporter (luciferase) HEK293 assay for inhibiting IL-11 signaling; set-up: species or system human
Method: Further testing of the lead mAbs was carried out using a cell-based reporter assay. IL-11 is reported to signal through the STAT3 and ERK pathways. Therefore, a STAT3 reporter cell line in which firefly luciferase gene expression is driven by STAT3 response elements located upstream of a minimal TATA promoter was selected to analyze mAb functional activity. In these cells, IL-11 can activate the endogenous STAT3 allowing it to bind to the STAT3 response elements, inducing transcription of the luciferase reporter gene and resulting in readily detectable luciferase expression. Antibodies to IL-11R which block IL-11 signaling should inhibit expression of IL-11 driven luciferase in these cells.
The STAT3 Reporter (Luciferase)—HEK293 cell line (BPS Bioscience, catalog #79800-P) was grown, passaged, and assayed as per manufacturer's protocols. Cells were added at 25,000 cells per well in a 96-well microtiter dish and incubated at 37° C. for 30-45 min. in 5% CO2 humidified air. Anti-IL-11R mAbs were added as a 3-fold dilution series in duplicate columns or rows, and plates were returned to the incubator for an additional 1 h at 37° C. after which 40 ng/mL IL-11 was added to each well to initiate the signal transduction cascade and luciferase production. Plates were incubated for 18-24 hours at 37° C. and luciferase was detected using a One-Step Luciferase Assay System (BPS Bioscience, cat. no. 60690-1) as per manufacturer's instructions.

hIL-11Rα = target: T1, hIL-11Rα; assay: Kinetic binding analysis by biolayer interferometry (protein G biosensors, Octet RED96e)
Method: Association was carried out in the presence of a 2-fold dilution series of hIL-11Rα and was allowed to proceed for 120 seconds; dissociation was measured for 300 to 1200 seconds.

Row | Molecule | ka (hIL-11Rα) [M⁻¹ s⁻¹] | kd (hIL-11Rα) [s⁻¹] | potency at inhibiting IL-11 signaling relative to TS7 / 8E2 (in words) [1]
1 | mAb8: anti-IL-11Rα antibody, human IgG4 (S228P), kappa; VH SEQ ID NO: 207, VL SEQ ID NO: 208 (antibody, V domains shown, human IgG4 S228P and kappa constant regions; mAb8 VH Chain; mAb8 VL Chain) VH: EVQLLESGGGLVQPGGSLRLSCAASGFTFSSYAMSWVRQAPGKGLEWVSSIVPYGDLTQYADSVKGRFTISRDNSKNTLYLQMNSLRAEDTAVYYCAKGPGWGSFDLWGRGTLVTVSS VL: DIQMTQSPSSLSASVGDRVTITCQASQDINNYLNWYQQKPGKAPKLLIYDASNLQTGVPSRFSGSGSGTDFTFTISSLQPEDIATYYCQQHESQSPTFGPGTKVDIK | 65100 | <1e-07 | less potent than TS7
2 | mAb6: anti-IL-11Rα antibody, human IgG4 (S228P), kappa; VH SEQ ID NO: 203, VL SEQ ID NO: 204 (antibody, V domains shown, human IgG4 S228P and kappa constant regions; mAb6 VH Chain; mAb6 VL Chain) VH: EVQLLESGGGLVQPGGSLRLSCAASGFTFSWYSMTWVRQAPGKGLEWVSSIVPYGDLTQYADSVKGRFTISRDNSKNTLYLQMNSLRAEDTAVYYCAKGPGWGSFDLWGRGTLVTVSS VL: DIQMTQSPSSLSASVGDRVTITCQASQDINNYLNWYQQKPGKAPKLLIYDASNLQTGVPSRFSGSGSGTDFTFTISSLQPEDIATYYCQQHEFQSPTFGPGTKVDIK | 800000 | <1e-07 | variable
3 | mAb9: anti-IL-11Rα antibody, human IgG4 (S228P), kappa; VH SEQ ID NO: 209, VL SEQ ID NO: 210 (antibody, V domains shown, human IgG4 S228P and kappa constant regions; mAb9 VH Chain; mAb9 VL Chain) VH: EVQLLESGGGLVQPGGSLRLSCAASGFTFSWYSMTWVRQAPGKGLEWVSGIVPYGDLTQYADSVKGRFTISRDNSKNTLYLQMNSLRAEDTAVYYCAKGPGWGSFDLWGRGTLVTVSS VL: DIQMTQSPSSLSASVGDRVTITCQASQDINNYLNWYQQKPGKAPKLLIYDASNLQTGVPSRFSGSGSGTDFTFTISSLQPEDIATYYCQQHESQSPTFGPGTKVDIK | 62200 | <1e-07 | more potent at inhibiting IL-11 signaling than either of TS7 or 8E2
4 | mAb7: anti-IL-11Rα antibody, human IgG4 (S228P), kappa; VH SEQ ID NO: 205, VL SEQ ID NO: 206 (antibody, V domains shown, human IgG4 S228P and kappa constant regions; mAb7 VH Chain; mAb7 VL Chain) VH: EVQLLESGGGLVQPGGSLRLSCAASGFTFSNYAMSWVRQAPGKGLEWVSSIVPYGDLTQYADSVKGRFTISRDNSKNTLYLQMNSLRAEDTAVYYCAKGPGWGSFDLWGRGTLVTVSS VL: DIQMTQSPSSLSASVGDRVTITCQASQDINNYLNWYQQKPGKAPKLLIYDASNLQTGVPSRFSGSGSGTDFTFTISSLQPEDIATYYCQQHESQSPTFGPGTKVDIK | 63500 | <1e-07 | less potent than TS7
5 | mAb10: anti-IL-11Rα antibody, human IgG4 (S228P), kappa; VH SEQ ID NO: 211, VL SEQ ID NO: 212 (antibody, V domains shown, IgG4 S228P kappa constant regions; mAb10 VH Chain; mAb10 VL Chain) VH: EVQLLESGGGLVQPGGSLRLSCAASGFTFSWYSMTWVRQAPGKGLEWVSSIVAYGDLTQYADSVKGRFTISRDNSKNTLYLQMNSLRAEDTAVYYCAKGPGWGSFDLWGRGTLVTVSS VL: DIQMTQSPSSLSASVGDRVTITCQASQDINNYLNWYQQKPGKAPKLLIYDASNLQTGVPSRFSGSGSGTDFTFTISSLQPEDIATYYCQQHESQSPTFGPGTKVDIK | 840000 | 0.000416 | less potent than TS7

Second part, led by results:

Row | ka (hIL-11Rα) [M⁻¹ s⁻¹] | kd (hIL-11Rα) [s⁻¹] | Molecule | potency at inhibiting IL-11 signaling relative to TS7 / 8E2 (in words) [1]
6 | 33700 | <1e-07 | mAb14: anti-IL-11Rα antibody, human IgG4 (S228P), kappa; VH SEQ ID NO: 219, VL SEQ ID NO: 220 (antibody, V domains shown, IgG4 S228P kappa constant regions; mAb14 VH Chain; mAb14 VL Chain) VH: EVQLLESGGGLVQPGGSLRLSCAASGFTFSWYSMTWVRQAPGKGLEWVSSIVPYGDLTQYAESVKGRFTISRDNSKNTLYLQMNSLRAEDTAVYYCAKGPGWGSFDLWGRGTLVTVSS VL: DIQMTQSPSSLSASVGDRVTITCQASQDINNYLNWYQQKPGKAPKLLIYDASNLQTGVPSRFSGSGSGTDFTFTISSLQPEDIATYYCQQHESQSPTFGPGTKVDIK | comparable in potency to TS7
7 | 84000 | <1e-07 | mAb15: anti-IL-11Rα antibody, human IgG4 (S228P), kappa; VH SEQ ID NO: 221, VL SEQ ID NO: 222 (antibody, V domains shown, IgG4 S228P kappa constant regions; mAb15 VH Chain; mAb15 VL Chain) VH: EVQLLESGGGLVQPGGSLRLSCAASGFTFSWYSMTWVRQAPGKGLEWVSSIVPYGDLTQYADSVKGRFTISRDNSKNTLYLQMNSLRAEDTAVYYCAKGPGWGSFDLWGRGTLVTVSS VL: DIQMTQSPSSLSASVGDRVTITCQASQDINNYLNWYQQKPGKAPKLLIYDASNLQTGVPSRFSGSGSGTDFTFTISSLQPEDIATYYCQQHETQTPTFGPGTKVDIK | comparable in potency to TS7
8 | 32900 | 0.0181 | mAb11: anti-IL-11Rα antibody, human IgG4 (S228P), kappa; VH SEQ ID NO: 213, VL SEQ ID NO: 214 (antibody, V domains shown, IgG4 S228P kappa constant regions; mAb11 VH Chain; mAb11 VL Chain) VH: EVQLLESGGGLVQPGGSLRLSCAASGFTFSWYSMTWVRQAPGKGLEWVSSIVDYGDLTQYADSVKGRFTISRDNSKNTLYLQMNSLRAEDTAVYYCAKGPGWGSFDLWGRGTLVTVSS VL: DIQMTQSPSSLSASVGDRVTITCQASQDINNYLNWYQQKPGKAPKLLIYDASNLQTGVPSRFSGSGSGTDFTFTISSLQPEDIATYYCQQHESQSPTFGPGTKVDIK | less potent than TS7
9 | 66700 | <1e-07 | mAb13: anti-IL-11Rα antibody, human IgG4 (S228P), kappa; VH SEQ ID NO: 217, VL SEQ ID NO: 218 (antibody, V domains shown, IgG4 S228P kappa constant regions; mAb13 VH Chain; mAb13 VL Chain) VH: EVQLLESGGGLVQPGGSLRLSCAASGFTFSWYSMTWVRQAPGKGLEWVSSIVPYGDLTQYADSVKGRFTISRDNSKNTLYLQMNSLRAEDTAVYYCAKPEDWGRFDLWGRGTLVTVSS VL: DIQMTQSPSSLSASVGDRVTITCQASQDINNYLNWYQQKPGKAPKLLIYDASNLQTGVPSRFSGSGSGTDFTFTISSLQPEDIATYYCQQHESQSPTFGPGTKVDIK | more potent at inhibiting IL-11 signaling than either of TS7 or 8E2

Reference: US12365738B2, “Method of treating an interleukin-11-associated or -mediated fibrotic disease or condition by administering an anti-interleukin-11 receptor subunit alpha (IL-11RA) antibody” (Lassen Therapeutics, Inc., priority 2021, dated 2025)
